Reference: paper PMC7367873, “Dissecting the sequence determinants for dephosphorylation by the catalytic subunits of phosphatases PP1 and PP2A” (Nature Communications, 2020)

Tests used:
[1] = tested on: GFP-14-3-3β and its binding proteins; test: GFP-14-3-3β co-IP with LC-MS/MS label-free quantification, untreated versus PP1c-treated; set-up: species or system human; details: pairwise comparison PP1 vs untreated, 3 replicates each
GFP-14-3-3β = GFP-14-3-3β co-IP with LC-MS/MS, untreated GFP-14-3-3β versus GFP control (14-3-3 interactome); type: binding, human; details: 3 replicates each
[2] = student's t-test, LC-MS/MS label-free quantification
[3] = pairwise comparison untreated GFP-14-3-3β vs GFP, student's t-test, LC-MS/MS label-free quantification

Molecule | Difference (log2), PP1 vs untreated [1, 2] [log2] | Difference (log2), untreated vs GFP (GFP-14-3-3β; [3]) [log2] | Difference (log2), PP1 vs untreated ([1]; log2 difference, label-free quantification) | Difference (log2), untreated vs GFP (GFP-14-3-3β; log2 difference, pairwise comparison untreated vs GFP, label-free quantification)
HDAC7 (protein, UniProt Q8WUI4 1-952, looked up) Histone deacetylase 7: MDLRVGQRPPVEPPPEPTLLALQRPQRLHHHLFLAGLQQQRSVEPMRLSMDTPMPELQVGPQEQELRQLLHKDKSKRSAVASSVVKQKLAEVILKKQQAALERTVHPNSPGIPYRTLEPLETEGATRSMLSSFLPPVPSLPSDPPEHFPLRKTVSEPNLKLRYKPKKSLERRKNPLLRKESAPPSLRRRPAETLGDSSPSSSSTPASGCSSPNDSEHGPNPILGSEALLGQRLRLQETSVAPFALPTVSLLPAITLGLPAPARADSDRRTHPTLGPRGPILGSPHTPLFLPHGLEPEAGGTLPSRLQPILLLDPSGSHAPLLTVPGLGPLPFHFAQSLMTTERLSGSGLHWPLSRTRSEPLPPSATAPPPPGPMQPRLEQLKTHVQVIKRSAKPSEKPRLRQIPSAEDLETDGGGPGQVVDDGLEHRELGHGQPEARGPAPLQQHPQVLLWEQQRLAGRLPRGSTGDTVLLPLAQGGHRPLSRAQSSPAAPASLSAPEPASQARVLSSSETPARTLPFTTGLIYDSVMLKHQCSCGDNSRHPEHAGRIQSIWSRLQERGLRSQCECLRGRKASLEELQSVHSERHVLLYGTNPLSRLKLDNGKLAGLLAQRMFVMLPCGGVGVDTDTIWNELHSSNAARWAAGSVTDLAFKVASRELKNGFAVVRPPGHHADHSTAMGFCFFNSVAIACRQLQQQSKASKILIVDWDVHHGNGTQQTFYQDPSVLYISLHRHDDGNFFPGSGAVDEVGAGSGEGFNVNVAWAGGLDPPMGDPEYLAAFRIVVMPIAREFSPDLVLVSAGFDAAEGHPAPLGGYHVSAKCFGYMTQQLMNLAGGAVVLALEGGHDLTAICDASEACVAALLGNRVDPLSEEGWKQKPNLNAIRSLEAVIRVHSKYWGCMQRLASCPDSWVPRVPGADKEEVEAVTALASLSVGILAEDRPSEQLVEEEEPMNL | -2.551 | 7.896 |  | 
TFEB (protein, UniProt P19484 1-476, looked up) Transcription factor EB: MASRIGLRMQLMREQAQQEEQRERMQQQAVMHYMQQQQQQQQQQLGGPPTPAINTPVHFQSPPPVPGEVLKVQSYLENPTSYHLQQSQHQKVREYLSETYGNKFAAHISPAQGSPKPPPAASPGVRAGHVLSSSAGNSAPNSPMAMLHIGSNPERELDDVIDNIMRLDDVLGYINPEMQMPNTLPLSSSHLNVYSSDPQVTASLVGVTSSSCPADLTQKRELTDAESRALAKERQKKDNHNLIERRRRFNINDRIKELGMLIPKANDLDVRWNKGTILKASVDYIRRMQKDLQKSRELENHSRRLEMTNKQLWLRIQELEMQARVHGLPTTSPSGMNMAELAQQVVKQELPSEEGPGEALMLGAEVPDPEPLPALPPQAPLPLPTQPPSPFHHLDFSHSLSFGGREDEGPPGYPEPLAPGHGSPFPSLSKKDLDLMLLDDSLLPLASDPLLSTMSPEASKASSRRSSFSMEEGDVL | -2.76 | 5.784 |  | 
THRAP3 (protein, UniProt Q9Y2W1 2-955, looked up) Thyroid hormone …: SKTNKSKSGSRSSRSRSASRSRSRSFSKSRSRSRSLSRSRKRRLSSRSRSRSYSPAHNRERNHPRVYQNRDFRGHNRGYRRPYYFRGRNRGFYPWGQYNRGGYGNYRSNWQNYRQAYSPRRGRSRSRSPKRRSPSPRSRSHSRNSDKSSSDRSRRSSSSRSSSNHSRVESSKRKSAKEKKSSSKDSRPSQAAGDNQGDEAKEQTFSGGTSQDTKASESSKPWPDATYGTGSASRASAVSELSPRERSPALKSPLQSVVVRRRSPRPSPVPKPSPPLSSTSQMGSTLPSGAGYQSGTHQGQFDHGSGSLSPSKKSPVGKSPPSTGSTYGSSQKEESAASGGAAYTKRYLEEQKTENGKDKEQKQTNTDKEKIKEKGSFSDTGLGDGKMKSDSFAPKTDSEKPFRGSQSPKRYKLRDDFEKKMADFHKEEMDDQDKDKAKGRKESEFDDEPKFMSKVIGANKNQEEEKSGKWEGLVYAPPGKEKQRKTEELEEESFPERSKKEDRGKRSEGGHRGFVPEKNFRVTAYKAVQEKSSSPPPRKTSESRDKLGAKGDFPTGKSSFSITREAQVNVRMDSFDEDLARPSGLLAQERKLCRDLVHSNKKEQEFRSIFQHIQSAQSQRSPSELFAQHIVTIVHHVKEHHFGSSGMTLHERFTKYLKRGTEQEAAKNKKSPEIHRRIDISPSTFRKHGLAHDEMKSPREPGYKAEGKYKDDPVDLRLDIERRKKHKERDLKRGKSRESVDSRDSSHSRERSAEKTEKTHKGSKKQKKHRRARDRSRSSSSSSQSSHSYKAEEYTEETEEREESTTGFDKSRLGTKDFVGPSERGGGRARGTFQFRARGRGWGRGNYSGNNNNNSNNDFQKRNREEEWDPEYTPKSKKYYLHDDREGEGSDKWVSRGRGRGAFPRGRGRFMFRKSSTSPKWAHDKFSGEEGEIEDDESGTENREEKDNIQPTTE | -2.776 | 4.049 |  | 
NXF1 (protein, UniProt Q9UBU9 2-619, looked up) Nuclear RNA export factor 1: ADEGKSYSEHDDERVNFPQRKKKGRGPFRWKYGEGNRRSGRGGSGIRSSRLEEDDGDVAMSDAQDGPRVRYNPYTTRPNRRGDTWHDRDRIHVTVRRDRAPPERGGAGTSQDGTSKNWFKITIPYGRKYDKAWLLSMIQSKCSVPFTPIEFHYENTRAQFFVEDASTASALKAVNYKILDRENRRISIIINSSAPPHTILNELKPEQVEQLKLIMSKRYDGSQQALDLKGLRSDPDLVAQNIDVVLNRRSCMAATLRIIEENIPELLSLNLSNNRLYRLDDMSSIVQKAPNLKILNLSGNELKSERELDKIKGLKLEELWLDGNSLCDTFRDQSTYISAIRERFPKLLRLDGHELPPPIAFDVEAPTTLPPCKGSYFGTENLKSLVLHFLQQYYAIYDSGDRQGLLDAYHDGACCSLSIPFIPQNPARSSLAEYFKDSRNVKKLKDPTLRFRLLKHTRLNVVAFLNELPKTQHDVNSFVVDISAQTSTLLCFSVNGVFKEVDGKSRDSLRAFTRTFIAVPASNSGLCIVNDELFVRNASSEEIQRAFAMPAPTPSSSPVPTLSPEQQEMLQAFSTQSGMNLEWSQKCLQDNNWDYTRSAQAFTHLKAKGEIPEVAFMK |  |  | 1.555 | 3.395
TFE3 (protein, UniProt P19532 1-575, looked up) Transcription factor E3: MSHAAEPARDGVEASAEGPRAVFVLLEERRPADSAQLLSLNSLLPESGIVADIELENVLDPDSFYELKSQPLPLRSSLPISLQATPATPATLSASSSAGGSRTPAMSSSSSSRVLLRQQLMRAQAQEQERRERREQAAAAPFPSPAPASPAISVVGVSAGGHTLSRPPPAQVPREVLKVQTHLENPTRYHLQQARRQQVKQYLSTTLGPKLASQALTPPPGPASAQPLPAPEAAHTTGPTGSAPNSPMALLTIGSSSEKEIDDVIDEIISLESSYNDEMLSYLPGGTTGLQLPSTLPVSGNLLDVYSSQGVATPAITVSNSCPAELPNIKREISETEAKALLKERQKKDNHNLIERRRRFNINDRIKELGTLIPKSSDPEMRWNKGTILKASVDYIRKLQKEQQRSKDLESRQRSLEQANRSLQLRIQELELQAQIHGLPVPPTPGLLSLATTSASDSLKPEQLDIEEEGRPGAATFHVGGGPAQNAPHQQPPAPPSDALLDLHFPSDHLGDLGDPFHLGLEDILMEEEEGVVGGLSGGALSPLRAASDPLLSSVSPAVSKASSRRSSFSMEEES | -2.839 | 3.895 |  | 
SRSF10 (protein, UniProt O75494 1-262, looked up) Serine/arginine-rich splicing …: MSRYLRPPNTSLFVRNVADDTRSEDLRREFGRYGPIVDVYVPLDFYTRRPRGFAYVQFEDVRDAEDALHNLDRKWICGRQIEIQFAQGDRKTPNQMKAKEGRNVYSSSRYDDYDRYRRSRSRSYERRRSRSRSFDYNYRRSYSPRNSRPTGRPRRSRSHSDNDRFKHRNRSFSRSKSNSRSRSKSQPKKEMKAKSRSRSASHTKTRGTSKTDSKTHYKSGSRYEKESRKKEPPRSKSQSRSQSRSRSKSRSRSWTSPKSSGH | -2.973 | 3.797 |  | 
